Data as given in article PMC2651784.
Read-outs that look alike come from different tables or passages of the source.

How the values were obtained:
[1] = target: T1, GAF (GAGA factor);Hsf;Ttk69 (Drosophila melanogaster?;Drosophila …, UniProt Q08605;P22813;P17789 1-582;1-691;1-643, ||); assay: competition
Ttk69 = Ttk69 (UniProt P17789 1-643); assay: EMSA
[2] = target: T2, GAF (GAGA factor);Hsf-S378D (Drosophila melanogaster?;Drosophila …, UniProt Q08605;P22813 1-582;1-691, |S378D); assay: EMSA
T2 sequence 1: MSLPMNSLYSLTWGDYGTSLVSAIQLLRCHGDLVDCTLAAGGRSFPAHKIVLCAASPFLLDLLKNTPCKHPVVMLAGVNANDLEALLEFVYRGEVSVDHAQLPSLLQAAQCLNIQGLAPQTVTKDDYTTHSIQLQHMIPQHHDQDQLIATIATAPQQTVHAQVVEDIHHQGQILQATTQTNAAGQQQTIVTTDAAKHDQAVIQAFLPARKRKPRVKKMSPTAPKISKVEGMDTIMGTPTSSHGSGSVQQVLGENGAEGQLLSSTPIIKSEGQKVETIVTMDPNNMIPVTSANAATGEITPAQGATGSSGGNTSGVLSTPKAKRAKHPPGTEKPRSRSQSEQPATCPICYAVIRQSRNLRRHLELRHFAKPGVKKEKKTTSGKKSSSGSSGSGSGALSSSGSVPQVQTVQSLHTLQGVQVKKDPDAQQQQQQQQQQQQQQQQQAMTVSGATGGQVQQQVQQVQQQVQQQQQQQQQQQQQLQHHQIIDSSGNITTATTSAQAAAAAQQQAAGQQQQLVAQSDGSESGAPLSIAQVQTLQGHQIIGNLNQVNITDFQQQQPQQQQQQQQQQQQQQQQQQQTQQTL
T2 sequence 2: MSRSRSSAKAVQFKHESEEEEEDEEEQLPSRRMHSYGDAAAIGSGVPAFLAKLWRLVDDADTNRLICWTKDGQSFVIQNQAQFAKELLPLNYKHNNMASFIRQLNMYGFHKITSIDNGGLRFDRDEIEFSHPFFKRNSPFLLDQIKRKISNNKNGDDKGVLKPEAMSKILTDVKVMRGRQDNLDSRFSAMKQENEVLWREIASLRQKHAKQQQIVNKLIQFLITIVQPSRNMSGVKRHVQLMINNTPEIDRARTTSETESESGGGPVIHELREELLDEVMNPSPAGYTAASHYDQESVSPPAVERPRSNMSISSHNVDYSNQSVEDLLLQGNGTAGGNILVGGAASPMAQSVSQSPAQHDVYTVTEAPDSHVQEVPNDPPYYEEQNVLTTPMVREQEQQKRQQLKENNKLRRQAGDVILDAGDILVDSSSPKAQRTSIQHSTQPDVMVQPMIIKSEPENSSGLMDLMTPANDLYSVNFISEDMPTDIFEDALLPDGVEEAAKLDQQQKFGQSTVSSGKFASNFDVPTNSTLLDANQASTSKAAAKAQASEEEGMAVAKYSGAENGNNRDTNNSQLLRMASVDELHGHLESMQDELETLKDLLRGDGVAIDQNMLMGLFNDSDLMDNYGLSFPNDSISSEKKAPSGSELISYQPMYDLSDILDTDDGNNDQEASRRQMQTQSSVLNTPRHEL

GAF (GAGA factor) = target: T3, GAF (GAGA factor) (UniProt Q08605 1-582); assay: EMSA
T3 sequence: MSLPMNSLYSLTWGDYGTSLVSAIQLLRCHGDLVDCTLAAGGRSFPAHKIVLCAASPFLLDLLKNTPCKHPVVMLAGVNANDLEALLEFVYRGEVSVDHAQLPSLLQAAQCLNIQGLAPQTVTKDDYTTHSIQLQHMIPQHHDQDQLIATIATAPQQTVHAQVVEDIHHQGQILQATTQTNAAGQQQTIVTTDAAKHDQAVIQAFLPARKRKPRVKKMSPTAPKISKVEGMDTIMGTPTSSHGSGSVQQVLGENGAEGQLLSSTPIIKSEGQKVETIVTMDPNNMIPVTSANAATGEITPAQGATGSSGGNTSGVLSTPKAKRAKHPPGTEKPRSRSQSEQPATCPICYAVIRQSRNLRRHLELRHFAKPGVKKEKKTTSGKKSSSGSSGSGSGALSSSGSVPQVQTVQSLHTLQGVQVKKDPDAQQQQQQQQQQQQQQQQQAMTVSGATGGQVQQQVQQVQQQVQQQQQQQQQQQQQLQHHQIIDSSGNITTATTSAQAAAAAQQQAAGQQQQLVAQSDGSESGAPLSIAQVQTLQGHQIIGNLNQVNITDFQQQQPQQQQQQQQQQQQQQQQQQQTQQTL

Hsf = target: T4, Hsf (UniProt P22813 1-691); assay: EMSA
T4 sequence: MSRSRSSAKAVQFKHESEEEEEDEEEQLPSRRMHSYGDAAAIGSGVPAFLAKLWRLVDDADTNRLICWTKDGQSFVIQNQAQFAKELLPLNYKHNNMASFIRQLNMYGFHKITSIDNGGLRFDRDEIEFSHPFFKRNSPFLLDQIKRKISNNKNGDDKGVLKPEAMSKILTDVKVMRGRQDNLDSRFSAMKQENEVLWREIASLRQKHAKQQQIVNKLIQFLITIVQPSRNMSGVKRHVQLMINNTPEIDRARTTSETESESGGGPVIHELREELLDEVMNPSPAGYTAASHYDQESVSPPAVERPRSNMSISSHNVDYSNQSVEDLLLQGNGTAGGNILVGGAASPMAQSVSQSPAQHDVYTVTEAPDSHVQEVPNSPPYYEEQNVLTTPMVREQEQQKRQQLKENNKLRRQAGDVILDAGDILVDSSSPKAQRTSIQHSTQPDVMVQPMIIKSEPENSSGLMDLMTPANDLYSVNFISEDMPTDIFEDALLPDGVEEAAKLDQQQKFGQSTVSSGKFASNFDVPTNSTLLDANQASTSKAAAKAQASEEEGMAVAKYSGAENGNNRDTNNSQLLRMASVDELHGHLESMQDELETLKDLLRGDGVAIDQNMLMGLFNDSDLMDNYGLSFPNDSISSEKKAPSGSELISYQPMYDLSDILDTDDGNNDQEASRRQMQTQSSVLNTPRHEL

Hsf;Ttk69 = Hsf;Ttk69 (Drosophila melanogaster?;Drosophila …, UniProt P22813;P17789 1-691;1-643, |); assay: EMSA
GAF (GAGA factor);Ttk69 = GAF (GAGA factor);Ttk69 (Drosophila melanogaster?;Drosophila …, UniProt Q08605;P17789 1-582;1-643, |); assay: EMSA
[3] = target: T1, GAF (GAGA factor);Hsf;Ttk69; assay: competition; remark: listed apart in the source

B1: HSE competitor (dsDNA)
DNA 1: CGCCTCGAATGTTCGCGAAAAGAGCGCCGG
DNA 2: CCGGCGCTCTTTTCGCGAACATTCGAGGCG
binding result [1]: binds

B2: tor-RE 25-bp probe (dsDNA)
DNA 1: CGTTCCTTGCTCAATGAATTTTTCG
DNA 2: CGAAAAATTCATTGAGCAAGGAACG
binding result (Ttk69): no binding
binding result [2]: binds
binding result (GAF (GAGA factor)): binds
binding result (Hsf): no binding
binding result (Hsf;Ttk69): no binding
binding signal (GAF (GAGA factor);Ttk69): 5 fold vs GAF alone

B3: TBS competitor (dsDNA)
DNA 1: TCCTCATGGTCCTGCCGAGCAG
DNA 2: CTGCTCGGCAGGACCATGAGGA
binding result [3]: no binding
